Values joined by “and” are separate entries in the source; they are usually repeats but may differ in a detail not shown here. Equal values may be shown once.
Legend:
hIL-13 [1] = target: T1, hIL-13 (human, UniProt P35225 35-146, limits assumed); assay: cell-based or functional assay
hIL-13 [2] = target: T1, hIL-13; assay: ELISA
hIL-13 [3] = target: T1, hIL-13; assay: cell-based or functional assay; remark: listed apart in the source
hIL-13 [4] = target: T1, hIL-13; assay: cell-based or functional assay; remark: listed apart in the source
hIL-13 [5] = target: T1, hIL-13; assay: cell-based or functional assay; remark: listed apart in the source
[6] = target: T2, Recombinant Human IL-13 Protein, His Tag (Acro Cat. IL3-H52H4) (human, UniProt P35225 35-146); assay: SPR (Biacore 8K), mAb captured on Protein G chip, IL-13 as analyte
T2 construct: Bought protein; also called Hu IL-13; not shown: His Tag
T2 sequence (P35225 other isoform, or with tags, fused parts or gaps limits assumed): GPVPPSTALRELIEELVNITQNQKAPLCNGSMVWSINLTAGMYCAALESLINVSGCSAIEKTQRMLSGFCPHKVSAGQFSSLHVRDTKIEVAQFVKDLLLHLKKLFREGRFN
Experimental: (§1) Samples were injected in a multi-cycle manner over freshly captured mAb, by regenerating the capture surfaces with injection of glycine pH 1.5 for 30 sec at a flow rate of 30 μL/min. The data was processed and analyzed with Biacore Insight Evaluation Software Version 2.0.15.12933 (GE Healthcare) as follows. […] The responses from the two buffer blank injections were then subtracted from the reference subtracted data (2-1) to yield double-referenced data, which were fit to an 1:1 binding model to determine the apparent association (ka) and dissociation rate constants (kd). Their ratio provided the apparent equilibrium dissociation constant or affinity constant (KD=kd/ka).

[7] = target: T3, Recombinant Cynomolgus IL-13 Protein, His Tag (SINO BIOLOGICAL, Cat. 11057-C07H) (cynomolgus monkey, UniProt Q5I6E4 19-132 (Macaca thibetana entry)); assay: as above
T3 construct: also called Cyno IL-13; cynomolgus monkey IL-13
T3 chain: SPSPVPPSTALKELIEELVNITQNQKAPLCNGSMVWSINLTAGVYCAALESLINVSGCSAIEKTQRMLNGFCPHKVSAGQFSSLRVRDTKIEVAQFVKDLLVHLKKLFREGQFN
Experimental: as §1

biotinylated hIL-13 = biotinylated hIL-13 (human, UniProt P35225 35-146, limits assumed, biotinylated (site not stated)); assay: FACS; blockade of biotinylated hIL-13 (0.05 ug/mL) binding to HEK293 cells expressing hIL-13Rα1/hIL-4Rα
Chain of biotinylated hIL-13 (P35225 other isoform, or with tags, fused parts or gaps limits assumed): as the sequence (P35225 other isoform, or with tags, fused parts or gaps limits assumed) above
Experimental: Briefly, HEK293 previously transduced to stably express both hIL-13Rα and hIL-4Rα were cultured and harvested. Cells were seeded at 200,000 cells in 100 uL per well. Cells were washed and the supernatant was discarded. […] The cells were stained in this mixture at 4° C. for 1 hour. […] Cells were incubated at 4° C. for 1 hour, protected from light. Cells were then washed and the median fluorescence intensity (MFI) of cells in each well were recorded by FACS using a BD FACSCanto II. Subsequent data were analyzed using GraphPad Prism.

T1 sequence (P35225 other isoform, or with tags, fused parts or gaps limits assumed): as the sequence (P35225 other isoform, or with tags, fused parts or gaps limits assumed) above

B1: Construct 2 (antibody, human IgG1, kappa)
heavy: QVTLRESGPALVKPTQTLTLTCTVSGFSLSAYSVNWIRQPPGKALEWLAMIWGDGKIVYNSALKSRLTISKDTSKNQVVLTMTNMDPVDTATYYCAGDGYYPYAMDNWGQGSLVTVSSASTKGPSVFPLAPSSKSTSGGTAALGCLVKDYFPEPVTVSWNSGALTSGVHTFPAVLQSSGLYSLSSVVTVPSSSLGTQTYICNVNHKPSNTKVDKKVEPKSCDKTHTCPPCPAPELAGAPSVFLFPPKPKDTLYITREPEVTCVVVDVSHEDPEVKFNWYVDGVEVHNAKTKPREEQYNSTYRVVSVLTVLHQDWLNGKEYKCKVSNKALPAPIEKTISKAKGQPREPQVYTLPPSRDELTKNQVSLTCLVKGFYPSDIAVEWESNGQPENNYKTTPPVLDSDGSFFLYSKLTVDKSRWQQGNVFSCSVMHEALHNHYTQKSLSLSPG
light: DIVMTQSPDSLSVSLGERATINCRASKSVDSYGNSFMHWYQQKPGQPPKLLIYLASNLESGVPDRFSGSGSGTDFTLTISSLQAEDVAVYYCQQNNEDPRTFGGGTKVEIKRTVAAPSVFIFPPSDEQLKSGTASVVCLLNNFYPREAKVQWKVDNALQSGNSQESVTEQDSKDSTYSLSSTLTLSKADYEKHKVYACEVTHQGLSSPVTKSFNRGEC
With B1 the “TARC Release IC50 (A549 cells)” value (hIL-13 [1]) was 0.9 nM.

B2: Construct 130 (antibody, human IgG1, kappa, L234A L235A)
heavy: QVTLRESGPALVKPTQTLTLTCTVSGFSLSAYSVNWIRQPPGKALEWLAMIWGDGKIVYNSALKSRLTISKDTSKNQVVLTMTNMDPVDTATYYCAGDGYYPYAMDNWGQGSLVTVSSASTKGPSVFPLAPSSKSTSGGTAALGCLVKDYFPEPVTVSWNSGALTSGVHTFPAVLQSSGLYSLSSVVTVPSSSLGTQTYICNVNHKPSNTKVDKKVEPKSCDKTHTCPPCPAPEAAGGPSVFLFPPKPKDTLYITREPEVTCVVVDVSHEDPEVKFNWYVDGVEVHNAKTKPREEQYNSTYRVVSVLTVLHQDWLNGKEYKCKVSNKALPAPIEKTISKAKGQPREPQVYTLPPSRDELTKNQVSLTCLVKGFYPSDIAVEWESNGQPENNYKTTPPVLDSDGSFFLYSKLTVDKSRWQQGNVFSCSVMHEALHNHYTQKSLSLSPG
light: DIVMTQSPDSLSVSLGERATINCRASKSVDSYGNSFMHWYQQKPGQPPKLLIYLASNLESGVPDRFSGSGSGTDFTLTISSLQAEDVAVYYCQQNNEDPRTFGGGTKVEIKRTVAAPSVFIFPPSDEQLKSGTASVVCLLNNFYPREAKVQWKVDNALQSGNSQESVTEQDSKDSTYSLSSTLTLSKADYEKHKVYACEVTHQGLSSPVTKSFNRGEC
notes: also called Lebrikizumab-HC; Lebrikizumab-LC
With B2 the Kd (hIL-13 [2]) was 0.027 nM, the “pSTAT6 Inhibition IC50 (HT-29 cells)” value (hIL-13 [3]) was 0.28 nM and the “TARC Inhibition IC50 (A549 cells)” value (hIL-13 [4]) was 1 nM. For the same binder, the “TF-1 Proliferation Inhibition IC50” value (hIL-13 [5]) was 0.15 nM, the Kd [6] was 0.112 nM and the Kd [7] was 0.227 nM. The IC50 (biotinylated hIL-13) was 1.05 nM.

B3: Construct 129 (antibody, human IgG4, kappa)
heavy: QVTLRESGPALVKPTQTLTLTCTVSGFSLSAYSVNWIRQPPGKALEWLAMIWGDGKIVYNSALKSRLTISKDTSKNQVVLTMTNMDPVDTATYYCAGDGYYPYAMDNWGQGSLVTVSSASTKGPSVFPLAPCSRSTSESTAALGCLVKDYFPEPVTVSWNSGALTSGVHTFPAVLQSSGLYSLSSVVTVPSSSLGTKTYTCNVDHKPSNTKVDKRVESKYGPPCPSCPAPEFLGGPSVFLFPPKPKDTLMISRTPEVTCVVVDVSQEDPEVQFNWYVDGVEVHNAKTKPREEQFNSTYRVVSVLTVLHQDWLNGKEYKCKVSNKGLPSSIEKTISKAKGQPREPQVYTLPPSQEEMTKNQVSLTCLVKGFYPSDIAVEWESNGQPENNYKTTPPVLDSDGSFFLYSRLTVDKSRWQEGNVFSCSVLHEALHSYTQKSLSLSLGK
light: DIVMTQSPDSLSVSLGERATINCRASKSVDSYGNSFMHWYQQKPGQPPKLLIYLASNLESGVPDRFSGSGSGTDFTLTISSLQAEDVAVYYCQQNNEDPRTFGGGTKVEIKRTVAAPSVFIFPPSDEQLKSGTASVVCLLNNFYPREAKVQWKVDNALQSGNSQESVTEQDSKDSTYSLSSTLTLSKADYEKHKVYACEVTHQGLSSPVTKSFNRGEC
notes: as for B2
B3 was tested, and the Kd (hIL-13 [2]) was 0.036 nM, the “pSTAT6 Inhibition IC50 (HT-29 cells)” value (hIL-13 [3]) was 0.33 nM and the “TARC Inhibition IC50 (A549 cells)” value (hIL-13 [4]) was 0.92 nM. For the same binder, the “TF-1 Proliferation Inhibition IC50” value (hIL-13 [5]) was 0.21 nM, the Kd [6] was 0.239 nM and the Kd [7] was 0.882 nM. The IC50 (biotinylated hIL-13) was 0.71 nM.

B4: Construct 131 (antibody, human IgG1, kappa, L234A L235A)
heavy: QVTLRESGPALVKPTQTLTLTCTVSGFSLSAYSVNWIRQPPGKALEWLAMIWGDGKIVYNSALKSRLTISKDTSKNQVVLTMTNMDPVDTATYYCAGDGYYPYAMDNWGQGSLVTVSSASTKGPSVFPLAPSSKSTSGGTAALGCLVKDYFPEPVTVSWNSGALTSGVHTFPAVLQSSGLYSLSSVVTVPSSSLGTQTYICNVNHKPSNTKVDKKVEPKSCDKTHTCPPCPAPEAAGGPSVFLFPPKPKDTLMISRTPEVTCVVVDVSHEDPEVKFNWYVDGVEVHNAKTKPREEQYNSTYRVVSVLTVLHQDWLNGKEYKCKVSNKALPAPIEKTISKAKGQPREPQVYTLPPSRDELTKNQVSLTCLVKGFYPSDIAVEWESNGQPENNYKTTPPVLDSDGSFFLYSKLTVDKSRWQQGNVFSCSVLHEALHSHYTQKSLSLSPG
light: DIVMTQSPDSLSVSLGERATINCRASKSVDSYGNSFMHWYQQKPGQPPKLLIYLASNLESGVPDRFSGSGSGTDFTLTISSLQAEDVAVYYCQQNNEDPRTFGGGTKVEIKRTVAAPSVFIFPPSDEQLKSGTASVVCLLNNFYPREAKVQWKVDNALQSGNSQESVTEQDSKDSTYSLSSTLTLSKADYEKHKVYACEVTHQGLSSPVTKSFNRGEC
notes: as for B2
With B4 the Kd (hIL-13 [2]) was 0.019 nM, the “pSTAT6 Inhibition IC50 (HT-29 cells)” value (hIL-13 [3]) was 0.22 nM and the “TARC Inhibition IC50 (A549 cells)” value (hIL-13 [4]) was 0.99 nM. For the same binder, the “TF-1 Proliferation Inhibition IC50” value (hIL-13 [5]) was 0.13 nM, the Kd [6] was 0.0756 nM and the Kd [7] was 0.123 nM. It also gave an IC50 (biotinylated hIL-13) of 0.79 nM.

B5: Construct 15 (antibody, human IgG1, kappa)
heavy: EVQLQESGPGLVKPSETLSLTCTVSGFSLNAYSVNWIRQPPGKGLEWLGMIWGDGKIVYNSALKSRLTISKDSSKNQVSLKLSSVTAADTAVYYCAGDGYYPYAMDNWGQGTTVTVSSASTKGPSVFPLAPSSKSTSGGTAALGCLVKDYFPEPVTVSWNSGALTSGVHTFPAVLQSSGLYSLSSVVTVPSSSLGTQTYICNVNHKPSNTKVDKKVEPKSCDKTHTCPPCPAPELAGAPSVFLFPPKPKDTLYITREPEVTCVVVDVSHEDPEVKFNWYVDGVEVHNAKTKPREEQYNSTYRVVSVLTVLHQDWLNGKEYKCKVSNKALPAPIEKTISKAKGQPREPQVYTLPPSRDELTKNQVSLTCLVKGFYPSDIAVEWESNGQPENNYKTTPPVLDSDGSFFLYSKLTVDKSRWQQGNVFSCSVMHEALHNHYTQKSLSLSPG
light: DIQLTQSPSSLSASVGDRVTITCRASKSVDSYGNSFMHWYQQKPGKAPKLLIYLASNLESGVPSRFSGSGSGTDFTLTISSLQPEDFATYYCQQNNEDPRTFGGGTKVEIKRTVAAPSVFIFPPSDEQLKSGTASVVCLLNNFYPREAKVQWKVDNALQSGNSQESVTEQDSKDSTYSLSSTLTLSKADYEKHKVYACEVTHQGLSSPVTKSFNRGEC
For B5, the “TARC Release IC50 (A549 cells)” value (hIL-13 [1]) was 0.9 nM.

B6: Construct 98 (antibody, human IgG1, kappa)
heavy: EVQLLESGGGLVQPGGSLRLSCAASGFSLNAYSVNWVRQAPGKGLEWLGMIWGDGKIVYNSALKSRLTISKDSSKNTVYLQMNSLRAEDTAVYYCAGDGYYPYAMDNWGQGTTVTVSSASTKGPSVFPLAPSSKSTSGGTAALGCLVKDYFPEPVTVSWNSGALTSGVHTFPAVLQSSGLYSLSSVVTVPSSSLGTQTYICNVNHKPSNTKVDKKVEPKSCDKTHTCPPCPAPELAGAPSVFLFPPKPKDTLYITREPEVTCVVVDVSHEDPEVKFNWYVDGVEVHNAKTKPREEQYNSTYRVVSVLTVLHQDWLNGKEYKCKVSNKALPAPIEKTISKAKGQPREPQVYTLPPSRDELTKNQVSLTCLVKGFYPSDIAVEWESNGQPENNYKTTPPVLDSDGSFFLYSKLTVDKSRWQQGNVFSCSVMHEALHNHYTQKSLSLSPG
light: DIQLTQSPSSLSASVGDRVTITCRASKSVDSYGNSFMHWYQQKPGKAPKLLIYLASELESGVPSRFSGSGSGTDFTLTISSLQPEDFATYYCQQNNEDPRTFGGGTKVEIKRTVAAPSVFIFPPSDEQLKSGTASVVCLLNNFYPREAKVQWKVDNALQSGNSQESVTEQDSKDSTYSLSSTLTLSKADYEKHKVYACEVTHQGLSSPVTKSFNRGEC
B6 was tested, and the “TARC Release IC50 (A549 cells)” value (hIL-13 [1]) was 0.9 nM.

B7: Construct 19 (antibody, human IgG1, kappa)
heavy: EVQLLESGGGLVQPGGSLRLSCAASGFSLNAYSVNWVRQAPGKGLEWLGMIWGDGKIVYNSALKSRLTISKDSSKNTVYLQMNSLRAEDTAVYYCAGDGYYPYAMDNWGQGTTVTVSSASTKGPSVFPLAPSSKSTSGGTAALGCLVKDYFPEPVTVSWNSGALTSGVHTFPAVLQSSGLYSLSSVVTVPSSSLGTQTYICNVNHKPSNTKVDKKVEPKSCDKTHTCPPCPAPELAGAPSVFLFPPKPKDTLYITREPEVTCVVVDVSHEDPEVKFNWYVDGVEVHNAKTKPREEQYNSTYRVVSVLTVLHQDWLNGKEYKCKVSNKALPAPIEKTISKAKGQPREPQVYTLPPSRDELTKNQVSLTCLVKGFYPSDIAVEWESNGQPENNYKTTPPVLDSDGSFFLYSKLTVDKSRWQQGNVFSCSVMHEALHNHYTQKSLSLSPG
light: DIQLTQSPSSLSASVGDRVTITCRASKSVDSYGNSFMHWYQQKPGKAPKLLIYLASNLESGVPSRFSGSGSGTDFTLTISSLQPEDFATYYCQQNNEDPRTFGGGTKVEIKRTVAAPSVFIFPPSDEQLKSGTASVVCLLNNFYPREAKVQWKVDNALQSGNSQESVTEQDSKDSTYSLSSTLTLSKADYEKHKVYACEVTHQGLSSPVTKSFNRGEC
With B7 the “TARC Release IC50 (A549 cells)” value (hIL-13 [1]) was 1.1 nM and 1 nM.

B8: Construct 96 (antibody, human IgG1, kappa, V domains shown)
VH: EVQLLESGGGLVQPGGSLRLSCAASGFSLNAYSVNWVRQAPGKGLEWLGMIWGDGKIVYNSALKSRLTISKDSSKNTVYLQMNSLRAEDTAVYYCAGDGYYPYAMDNWGQGTTVTVSS
VL: DIQLTQSPSSLSASVGDRVTITCRASKSVDSYGNSFMHWYQQKPGKAPKLLIYLASDLESGVPSRFSGSGSGTDFTLTISSLQPEDFATYYCQQNNEDPRTFGGGTKVEIKR
In the case of B8, the “TARC Release IC50 (A549 cells)” value (hIL-13 [1]) is reported as 1 nM.
